One assay deals with HLA-A*02:01 (Homo sapiens, UniProt P04439, D140Y/D185E/D98H/E176V/E277Q/G131W/G231S/I119V/I121R/I166T/I218V/L300P/L318F/N151K/N90K/P208A/P217A/Q86G/Q94H/R138H/R169H/T345S). Nature of the assay: MHC binding assay (UV-ligand exchange, beta2m ELISA, peptide exchange yield). Conditions: binding of HLA-class I restricted peptides to HLA-A*02:01, ranged by peptide exchange yield (UV-ligand exchange, β2m ELISA). A digest of the protocol: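 Readout is a β2m ELISA: stabilized complexes captured on streptavidin, detected with HRP-conjugated anti-β2m and TMB at 450 nm, reporting peptide exchange yield. Complexes come from UV-light cleavage of a conditional ligand in HLA-A*02:01 and replacement by the candidate peptide, samples diluted 100-fold.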
(An ELISA detects its analyte on a solid surface through an enzyme-linked reagent.)

Another assay has as its system CD8+ T cells. Nature of the assay: In vitro immunogenicity: T-cell priming with aAPCs loaded with peptide/MHC and anti-CD28, pMHC multimer readout. Type of assay: cell-based, human. The following applies: for Wells positive [%]: HLA-A*02 restricted peptides. How it is done: In an aspect, the peptides are pre-screened for immunogenicity before being included in the warehouse. By way of example, and not limitation, the immunogenicity of the peptides included in the warehouse is determined by a method comprising in vitro T-cell priming through repeated stimulations of CD8+ T cells from healthy donors with artificial antigen presenting cells loaded with peptide/MHC complexes and anti-CD28 antibody.
In order to obtain information regarding the immunogenicity of the TUMAPs of the present invention, the inventors performed investigations using an in vitro T-cell priming assay based on repeated stimulations of CD8+ T cells with artificial antigen presenting cells (aAPCs) loaded with peptide/MHC complexes and anti-CD28 antibody.
In order to perform in vitro stimulations by artificial antigen presenting cells loaded with peptide-MHC complex (pMHC) and anti-CD28 antibody, the inventors first isolated CD8+ T cells from fresh HLA-A*02 leukapheresis products via positive selection using CD8 microbeads (Miltenyi Biotec, Bergisch-Gladbach, Germany) of healthy donors obtained from the University clinics Mannheim, Germany, after informed consent.
PBMCs and isolated CD8+ lymphocytes were incubated in T-cell medium (TCM) until use consisting of RPMI-Glutamax (Invitrogen, Karlsruhe, Germany) supplemented with 10% heat inactivated human AB serum (PAN-Biotech, Aidenbach, Germany), 100 U/ml Penicillin/100 μg/ml Streptomycin (Cambrex, Cologne, Germany), 1 mM sodium pyruvate (CC Pro, Oberdorla, Germany), 20 μg/ml Gentamycin (Cambrex). 2.5 ng/ml IL-7 (PromoCell, Heidelberg, Germany) and 10 U/ml IL-2 (Novartis Pharma, Nürnberg, Germany) were also added to the TCM at this step.
Generation of pMHC/anti-CD28 coated beads, T-cell stimulations and readout was performed in a highly defined in vitro system using four different pMHC molecules per stimulation condition and 8 different pMHC molecules per readout condition.
The purified co-stimulatory mouse IgG2a anti human CD28 Ab 9.3 (Jung et al., 1987) was chemically biotinylated using Sulfo-N-hydroxysuccinimidobiotin as recommended by the manufacturer (Perbio, Bonn, Germany). Beads used were 5.6 μm diameter streptavidin coated polystyrene particles (Bangs Laboratories, Illinois, USA).
pMHC used for positive and negative control stimulations were A*0201/MLA-001 (peptide […] (SEQ ID NO. 664) from modified Melan-A/MART-1) and A*0201/DDX5-001 ([…] from DDX5, SEQ ID NO. 665), respectively.
800.000 beads/200 μl were coated in 96-well plates in the presence of 4×12.5 ng different biotin-pMHC, washed and 600 ng biotin anti-CD28 were added subsequently in a volume of 200 μl. Stimulations were initiated in 96-well plates by co-incubating […] CD8+ T cells with 2×10^5 washed coated beads in 200 μl TCM supplemented with 5 ng/ml IL-12 (PromoCell) for 3 days at 37° C. Half of the medium was then exchanged by fresh TCM supplemented with 80 U/ml IL-2 and incubating was continued for 4 days at 37° C. This stimulation cycle was performed for a total of three times. For the pMHC multimer readout using 8 different pMHC molecules per condition, a two-dimensional combinatorial coding approach was used as previously described (Andersen et al., 2012) with minor modifications encompassing coupling to 5 different fluorochromes. Finally, multimeric analyses were performed by staining the cells with Live/dead near IR dye (Invitrogen, Karlsruhe, Germany), CD8-FITC antibody clone SK1 (BD, Heidelberg, Germany) and fluorescent pMHC multimers. For analysis, a BD LSRII SORP cytometer equipped with appropriate lasers and filters was used. Peptide specific cells were calculated as percentage of total CD8+ cells. Evaluation of multimeric analysis was done using the FlowJo software (Tree Star, Oregon, USA). In vitro priming of specific multimer+ CD8+ lymphocytes was detected by comparing to negative control stimulations. […]

“283 (ALYIGDGYVIHLA; listed as Homo sapiens) [compound 283]”: the Peptide exchange result in the assay with HLA-A*02:01 was “″+++″ (≥50% = +++)”. The wells result in the assay with CD8+ T cells (HLA class I peptides, percentage of positive wells) is recorded as “+ (<20% = +)”.
Turning to “319 (SLEPQIQPV; listed as Homo sapiens) [compound 319]”, the Peptide exchange result in the assay with HLA-A*02:01 is reported as “″++″ (≥20% = ++)”. In addition, the “Wells positive [%]” value with CD8+ T cells is on record as “″+″ (<20% = +)”.
For “384 (ILFANPNIFV; listed as Homo sapiens) [compound 384]”, the Peptide exchange entry with HLA-A*02:01 is “″+++″ (≥50% = +++)”. In addition, the “Wells positive [%]” value in the assay on CD8+ T cells is “″+″ (<20% = +)”.
The matching figures for “443 (GLWEIENNPTV; listed as Homo sapiens) [compound 443]”: “″+++″ (≥50% = +++)” and “″+″ (<20% = +)”.
Consider “460 (AMLEKNYKL; listed as Homo sapiens) [compound 460]”, for which the Peptide exchange result with HLA-A*02:01 is listed as “″++++″ (≥75% = ++++)”. Besides, the “Wells positive [%]” value in the assay on CD8+ T cells is recorded as “″+″ (<20% = +)”.
The matching figures for “489 (KMWEELPEVV; listed as Homo sapiens) [compound 489]”: “″+++″ (≥50% = +++)” and “″+″ (<20% = +)”.
The matching figures for “499 (KIFDIDEAEEGV; listed as Homo sapiens) [compound 499]”: “″++″ (≥20% = ++)” and “″+″ (<20% = +)”.
Taken in the same sequence, the figures for “511 (FLDPYCSASV; listed as Homo sapiens) [compound 511]” were “″++″ (≥20% = ++)” and “″+″ (<20% = +)”.
“603 (FLIEPEHVNTV; listed as Homo sapiens) [compound 603]”: the Peptide exchange result with HLA-A*02:01 is reported as “″++″ (≥20% = ++)”. Further, the “Wells positive [%]” value in the assay with CD8+ T cells is recorded as “″+″ (<20% = +)”.

The values are drawn from patent US10253076B2, “Peptides and combination of peptides for use in immunotherapy against ovarian cancer and other cancers” (immatics biotechnologies GmbH, priority 2015, dated 2019).
